Assay results from patent US8455435B2, “Remedies for ischemia” (Ludwig-Maximilians-Universitat Munchen, priority 2006, dated 2013).
Entries after “also recorded” stand apart in the source; their conditions may differ.

Assays:
[1] = tested on: CD45+/CD34+ and CD34+/CXCR4+ cells in the heart; test: Flow cytometry of non myocyte cardiac cells after MI; assay type: in vivo, C57BL/6 and CD26 k.o. mice; conditions: AMD3100 1.25 mg/kg i.p. in G-CSF treated CD26 k.o. and G-CSF-DipA animals
Method: FIGS. 27A, 27C, 27E, Tab. S 3A; Nr. 2: FIGS. 27B, 27D, 27F, Tab. S 3B). Animal care and all experimental procedures were performed in strict accordance to the Guide for the Care and Use of Laboratory Animals published by the US National Institutes of Health (NIH publication No. 85-23, revised 1996). Mice were randomly divided into the following groups: […] G-CSF and/or Diprotin A treatment was initiated immediately after the surgical procedure. Cardiac cells from sham operated and infarcted hearts of wt and CD26 k.o. mice were analyzed 48 hours after MI (n=6). Therefore, a “myocyte-depleted” cardiac cell population was prepared, incubating minced myocardium in 0.1% collagenase IV (Gibco BrL) 30 min at 37° C., lethal to most adult mouse cardiomyocytes (Zhou et al., 2000). Cells were then filtered through a 70-μm mesh. […] Cells were stained with CD45-PerCP, CD34-FITC, CD26-FITC, c-kit-PE, Sca-1-PE, CXCR4-PE Flk-1, Flk-PE, CD3-biotin, CD45R/B220-biotin, CD11b-biotin, TER-119-biotin, Ly-6G-biotin Abs (all from BD Pharmingen) and subjected to flow cytometry using […] flow cytometer and Expo32 ADC Xa software (Beckman Coulter). For evaluation of SDF-1-CXCR4 dependent homing, G-CSF stimulated CD26 k.o. mice were treated i.p. with the CXCR4-antagonist AMD3100 (1.25 mg/kg). Cardiac cells were analyzed 8 hours after the last AMD3100 application. Each analysis included 50000 events.

CXCR4 = CXCR4 (Mus musculus, UniProt P70658); conditions: 48 hours after MI; cited from earlier work
Sequence of CXCR4 (P70658 whole entry): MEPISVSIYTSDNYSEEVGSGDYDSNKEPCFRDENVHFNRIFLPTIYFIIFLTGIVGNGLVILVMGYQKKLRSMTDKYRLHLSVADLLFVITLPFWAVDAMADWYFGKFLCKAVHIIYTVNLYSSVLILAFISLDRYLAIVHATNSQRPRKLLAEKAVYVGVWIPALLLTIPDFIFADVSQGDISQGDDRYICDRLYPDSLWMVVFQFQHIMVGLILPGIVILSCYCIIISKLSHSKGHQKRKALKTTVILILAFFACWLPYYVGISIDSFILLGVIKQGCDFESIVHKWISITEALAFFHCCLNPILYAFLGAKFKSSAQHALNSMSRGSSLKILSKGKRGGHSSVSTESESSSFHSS

cortical infarct = conditions: permanent middle cerebral artery occlusion; cited from earlier work
[2] = tested on: TUNEL positive cardiomyocytes; test: TUNEL staining of apoptotic cardiomyocytes in the border zone after MI; assay type: in vivo, wt and CD26-/- mice; conditions: 2 days after MI, wt and CD26-/- animals, vs saline
Method: (§1) Mice were randomly divided into the following groups: Sham operated animals (n=20), infarcted wildtyp (n=20) (wt) receiving either saline (0.9% NaCl), G-CSF (100 μg/kg/d i.p.), Diprotin A (70 μg/kg/twice per day) or G-CSF+Diprotin A and CD26 k.o. animals (n=20) receiving either saline (0.9% NaCl) or G-CSF (100 μg/kg/d) for up to 6 days. G-CSF and/or Diprotin A treatment was initiated immediately after the surgical procedure.
(§2) For immunostaining the following primary antibodies were used: CD45 (rat anti-mouse, BD Pharmingen), CD31 (goat anti-mouse, Santa Cruz), Ki67 (goat anti-mouse, Santa Cruz). AEC was used as chromogen. Double staining for CD31 and Ki67 was performed using DAB as additional chromogen (all from Dako). Apoptotic cells were detected according to Harada et al. 2005 (Harada et al., 2005) using the TUNEL assay (ApopTag, MP Biomedicals). Digital photographs were taken at a magnification of ×400, and 10 random high-power fields (HPF) from the borderzone of each heart sample (n=3) were analyzed. Quantification of blood vessels was assessed by CD31^+ immunohistochemistry in the granulation tissue at the border zone. The numbers of CD31^+ capillaries were quantified from 10 random high power fields (HPF) with 400× magnification.

CD45+/CD34+ progenitors = test: FACS of peripheral blood, stem cell mobilization by G-CSF; assay type: in vivo, C57BL/6 and CD26 k.o. mice; conditions: G-CSF 100 μg/kg/d; wt (+/-Diprotin A) and CD26 k.o. mice vs saline
Method: 10 weeks old CD26 k.o. (n=6) were either treated with G-CSF (100 μg/kg/d) or saline daily for 6 days and or C57BL/6 mice (n=6) were treated with saline, G-CSF, Diprotin A or both daily for 6 days. Cells were separated as described previously (Deindl et al., 2006). The following monoclonal antibodies were used: CD45-PerCP, CD34-FITC, CD31-PE, c-kit-PE, Sca-1-PE, CXCR4-PE, Flk-PE, CD3-biotin, CD45R/B220-biotin, CD11b-biotin, TER-119-biotin, Ly-6G-biotin (all from BD Pharmingen). Matching isotype antibodies (BD Pharmingen) served as controls. Cells were analyzed by 3-color flow cytometry using a Coulter® Epics® XL-MCL™ flow cytometer (Beckman Coulter). Each analysis included 50000 events.

myocardial infarction = test: Survival after MI (Kaplan-Meier; G-CSF, Diprotin A); assay type: in vivo, C57BL/6 and CD26 k.o. mice
Method: (§3) MI was induced in 10 weeks old male CD26 k.o. or C57BL/6 mice by surgical occlusion of the left anterior descending artery (LAD) as described previously (Deindl et al., 2006). Experiments concerning survival and cardiac function were performed by two different operators (Nr. 1: FIGS. 27A, 27C, 27E, Tab. S 3A; Nr. 2: FIGS. 27B, 27D, 27F, Tab. S 3B). Animal care and all experimental procedures were performed in strict accordance to the Guide for the Care and Use of Laboratory Animals published by the US National Institutes of Health (NIH publication No. 85-23, revised 1996).
as §1
Results were expressed as mean±s.e.m. Multiple group comparisons were performed by one-way analyses of variance (ANOVA) followed by the Bonferroni procedure for comparison of means. Comparisons between two groups were performed using the unpaired Student's t-test. Data were considered statistically significant at a value of p≦0.05. Mortality was analyzed by the Kaplan-Meier-method.

myocardial function = test: Pressure volume relations four weeks after MI (G-CSF, Diprotin A); assay type: in vivo, C57BL/6 and CD26 k.o. mice; conditions: day 30, CD26 k.o. mice
Method: as §3, §1
For evaluation of pressure-volume relationships in vivo, mice were anesthetised with thiopental (100 mg/kg, i.p.), intubated and ventilated (MiniVent, HUGO SACHS, Freiburg, Germany). After catheterization via the right carotid artery an impedance-micro manometer catheter (Millar Instruments, Houston, Tex.) was introduced into the left ventricle. Raw conductance volumes were corrected for parallel conductance by the hypertonic saline dilution method as described previously (Zaruba et al., 2008). Heamodynamic measurements as well as data analyses were performed by a blinded person using PVAN analysis software (HUGO SACHS, March, Germany).

[3] = tested on: CD45+/CD34+ and CD45+/CD34- cell populations in peripheral blood; test: Flow cytometry of peripheral blood mononuclear cells after PTH or G-CSF in healthy mice; assay type: in vivo, C57BL/6 mice; conditions: PTH day 6 and day 14; G-CSF day 6
Method: (§4) For the experiments healthy age- and sex-matched (male, 8-12 weeks of age) C57BL/6 mice (Charles River) were used. Animal care and all experimental procedures were performed in strict accordance to the German and National Institutes of Health animal legislation guidelines and were approved by the local animal care and use committees.
(§5) Mice were divided into the following groups: 1) administration of saline daily for 6 days, sacrificed at day 7 (n=6). 2) administration of PTH (Bachem) daily for 6 consecutive days (80 μg per kg body weight per day, intraperitoneally), sacrificed at day 7 (n=6). 3) administration of PTH daily for 14 consecutive days, sacrificed at day 15 (n=6). 4) administration of G-CSF (Amgen Biologicals) daily for 5 consecutive days (200 μg per kg body weight per day, intraperitoneally), sacrificed at day 6 (n=6).
(§6) at day 6, 1 ml of peripheral blood was harvested from each mouse by aspirating the carotid artery. Bone marrow cells were obtained by flushing the tibias and femurs from the euthanized mice. Mononuclear cells were separated by density-gradient centrifugation using 1.077 g/mL Histopaque solution (Sigma Chemicals), purified and resuspended in phosphate-buffered saline (PBS) containing 1% bovine serum albumin. Cells were incubated for 40 minutes in the dark at 4° C. with following fluorescein-isothiocyanate (FITC), phycoerythrin (PE), and peridinin-chlorphyll-protein (PerCP) conjugated monoclonal antibodies: CD45-PerCP, C34-FITC, CD31-PE, Sca-1-PE and c-kit-PE (all from BD Pharmingen). Isotype-identical antibodies (BD Pharmingen) served as controls. Cells were analyzed by 3-color flow cytometry using a Coulter® Epics® XL-MCL™ flow cytometer (Beckman Coulter). Each analysis included 20000 events. The absolute number of antigen-positive cells per ml of whole blood was calculated by multiplying the percentage of antigen-positive cells with the total number of mononuclear cells per ml of blood detected by the conventional hematological cell analyzer. The number of lymphocytes together with the number of monocytes comprised the total number of mononuclear cells.

[4] = tested on: CD45+/CD34+ and CD45+/CD34- cell populations in bone marrow; test: Flow cytometry of bone marrow cells after PTH or G-CSF in healthy mice; assay type: in vivo, C57BL/6 mice
Method: as §4, §5, §6

infarcted heart = test: Histology and immunohistochemistry after MI: infarct size, LV wall thickness, CD31+ capillaries (G-CSF, Diprotin A); assay type: in vivo, C57BL/6 and CD26 k.o. mice
Method: as §3, §1
At day 6 (n=6) and day 30 (n=6), hearts were excised. After fixation in 4% phosphate buffered formalin the hearts were cut transversally into 2 mm thick slices and embedded in paraffin. 4 μm thick sections were cut and mounted on positively charged glass slides. […] Infarct size and wall thickness were determined according to Deindl et al. (Deindl et al., 2006).
as §2, with “AEC was used as chromogen. Double staining for CD31 and Ki67 was performed using DAB as additional chromogen (all from Dako).” left out

c1cc(CN2CCCNCCNCCCNCC2)ccc1CN1CCCNCCNCCCNCC1 [AMD3100]
recruitment of CD34+/CXCR4+ cells into the heart after MI [1]: diminished the number; also recorded: reversed the recruitment | decrease of bone marrow derived cell recruitment after MI (CXCR4): 64%

PTHrP(1-34): parathyroid hormone-related peptide fragment 1-34, SEQ ID NO:7
decrease of cortical infarct size (cortical infarct): up to 47%

B1: G-CSF: granulocyte colony stimulating factor (Amgen Biologicals) (protein, UniProt P09919 31-207, looked up)
Granulocyte …: TPLGPASSLPQSFLLKCLEQVRKIQGDGAALQEKLVSECATYKLCHPEELVLLGHSLGIPWAPLSSCPSQALQLAGCLSQLHSGLFLYQGLLQALEGISPELGPTLDTLQLDVADFATTIWQQMEELGMAPALQPTQGAMPAFASAFQRRAGGVLVASHLQSFLEVSYRVLRHLAQP
number of TUNEL positive cardiomyocytes in the border zone [2]: decreased apoptotic cell death; also recorded: reduced the number | mobilization of CD45+/CD34+ progenitors in peripheral blood (CD45+/CD34+ progenitors): significantly increased mobilization | survival rate (myocardial infarction; CD26 k.o. mice): 75% | survival rate (myocardial infarction; wt animals): 55% | arterial afterload (arterial elastance) (myocardial function): markedly reduced | diastolic heart function (isovolumetric relaxation parameter Tau) (myocardial function): improved diastolic heart function | ventricular dilation measured by enddiastolic volumes (myocardial function): attenuated ventricular dilation | subtypes of CD45+/CD34+ and CD45+/CD34- cells in peripheral blood [3]: significant increase | increase of CD45+/CD34- cells in bone marrow compared to saline treated mice ([4]; G-CSF treatment, p<0.001): 18.9% | subtypes of CD45+/CD34- cells in bone marrow ([4]; PTH day 6, G-CSF): significantly decreased | subtypes of CD45+CD34+ cells in bone marrow ([4]; PTH day 6 or day 14, G-CSF vs control group): significant decrease | number of CD31+ capillaries at the infarct borderzone (infarcted heart; 6 days after MI, CD26 k.o. animals): Increased neovascularization; also recorded: significantly increased number | size of LV infarction (scar tissue) (infarcted heart; day 30, CD26 k.o. animals): smaller | thickness of the left ventricular wall (infarcted heart; day 30, CD26 k.o. animals): significantly improved thickness; also recorded: significantly ameliorated
